First the molecules themselves.
B1: Twister Ribozyme (parent)
chain: AACACUGCCAAUGCCGGUCCCAAGCCCGGAUAAAAGUGGAGGGGGCGG

We go through 167 variants from the RNAGym collection of RNA variant scans (doi:10.7554/elife.80360).

In the series the parent is B1. Kind of series: self-cleavage, relative activity (ratio to wild type); higher = more cleavage; co-transcriptional.
As for U37A G47U, the self-cleavage amounted to 0.702.
The value for U31G G45A was 0.99; that for C3U A34U was 0.314.
With C20A G29A the figure was 0.138.
For C5U G42U, the self-cleavage amounted to 0.134.
The value for C21U C26A was 0.0796.
With A1G G38C the figure was 0.304; with C15G A35U, 0.0985; with C26U G43U, 0.111.
With A2U A11G the figure was 0.586; with A22G G36U, 0.105.
With C3G A22U, the self-cleavage came out at 0.384.
The value for U12G G43A was 0.399; that for C27U U37G was 0.342; that for U18A was 0.667.
The value for U12A G36A was 0.924; that for A4G C20G was 0.128.
With G17U G45A the figure was 0.148.
As for U31G G41C, the self-cleavage was 0.278.
For the variant U12A G39A, the self-cleavage stood at 0.677.
With U12A G39U the figure was 0.242.
The value for A11G A30U was 0.976.
With C9G A30U the figure was 0.62; with C21G G43U, 0.0954.
A22C A33C: the self-cleavage amounted to 0.955.
With G17C C27G the figure was 0.195; with U37G C46A, 0.619.
In the case of A34U U37G, the self-cleavage amounted to 0.372.
As for C3U U31G, the self-cleavage turned out to be 0.445.
Regarding A1G C26A, the self-cleavage is 0.244.
Turning to G17U A40C, the self-cleavage was determined as 0.123.
With G16C C25A the figure was 0.0993.
The value for G24A C25G was 0.0958; that for A11C G45U was 0.748; that for C14G A23C was 0.0556.
With A11G G17C the figure was 0.0792.
Regarding C46U G48U, the self-cleavage is 1.01.
With G13A C25U the figure was 0.387; with A32U G48U, 0.977; with G7A A10G, 0.982.
The value for A22U G39C was 0.115; that for C25A A35C was 0.141.
Take A10C G43U: the self-cleavage was 0.482.
The value for U12A A32U was 1.1; that for U6A A33G was 0.881; that for U12C U18C was 0.564.
On to U12C C26A, for which the self-cleavage turned out to be 0.658.
The value for A4C G39U was 0.0723; that for G36A U37G was 0.32; that for G17A G45C was 0.278.
Consider G36C, for which the self-cleavage worked out at 0.691.
With C3U C20A the figure was 0.07; with C27A G42C, 0.139; with G17U A22U, 0.161.
For G42A G44U, the self-cleavage was found to be 0.173.
The value for A32U U37G was 0.737.
For C5A C21G, the self-cleavage is 0.113.
Consider G38C A40U, for which the self-cleavage amounted to 0.129.
The value for C5A A34G was 0.41; that for C5A C46G was 0.689.
For the variant C26A A35G, the self-cleavage worked out at 0.219.
The value for U37G G44C was 0.669; that for U12G G47A was 0.772.
The value for C21G G42A was 0.0891; that for C5U C19G was 0.107.
In the case of A30U G47C, the self-cleavage was 0.669.
For U6A A35C, the self-cleavage came out at 1.04.
With U37G G43C the figure was 0.0693; with C5G A34U, 0.309; with C21A A23C, 0.109.
With A33C G43C the figure was 0.107; with A23G C46G, 0.405.
For the variant C8U G44C, the self-cleavage was 0.598.
The value for A4C A32C was 0.101; that for U12G A22G was 0.316; that for C25U G43C was 0.102.
For the variant C15U G16C, the self-cleavage came to 0.464.
The value for U6A A32G was 0.987.
The value for G17U A33G was 0.317; that for A1G G28A was 0.406; that for C8U C46U was 0.726.
The value for C14U G17C was 0.152.
In the case of C21G A30G, the self-cleavage amounted to 0.0493.
With U6C G24C the figure was 0.0688; with G16U G45C, 0.554; with C15A G41A, 0.189.
The value for C3U A33U was 0.471; that for U12A C27G was 0.138.
The value for C8U U12A was 0.825; that for G43A was 0.328; that for C27G A35G was 0.108.
For the variant G43C C46G, the self-cleavage turned out to be 0.174.
For G17U C26U, the self-cleavage amounted to 0.458.
Consider U18G C27G, for which the self-cleavage is 0.0399.
With G17U G47U the figure was 0.181; with U12C G45C, 0.584; with A1G G24U, 0.163.
The value for C3U A22G was 0.0518; that for G7U U12C was 0.0693.
The value for C20G A35G was 0.094; that for A22G A33G was 0.255; that for C21A G41C was 0.457.
In the case of A34C G41C, the self-cleavage stood at 0.111.
With U12C G42C the figure was 0.486.
With U12A A34G the figure was 1.02; with G16C A22G, 0.0711.
Consider C9A A35C, for which the self-cleavage was 0.66.
With C14A A33U the figure was 0.908.
The value for A22C C27U was 0.901.
As to A11U U31C, the self-cleavage was 1.04.
With G13U A23G the figure was 0.0827; with G7C C9U, 0.101; with G7C C9G, 0.0747.
As for G41U, the self-cleavage turned out to be 0.752.
For the variant A40G G43U, the self-cleavage was found to be 0.136.
Take A4U A34G: the self-cleavage is 0.0772.
Regarding U12A A30U, the self-cleavage worked out at 1.15.
The value for U31C A40U was 0.149; that for A1C G7C was 0.121.
With A2C C5A the figure was 0.0506; with U12G C26A, 0.589; with C8A G24U, 0.841.
Take G28A G38C: the self-cleavage was 0.691.
The value for G17U G48A was 0.316; that for C26G G29A was 0.132; that for U12C G36C was 0.559.
With G16A G47U the figure was 0.487.
Consider C27G G45A, for which the self-cleavage was determined as 0.0977.
G29U G38C: the self-cleavage worked out at 0.778.
The value for C27U G47C was 0.323.
The value for C27A A34U was 0.145; that for G13C G44A was 0.584; that for G16C G45C was 0.249.
With A11C U37A the figure was 0.886.
C19G G42C: the self-cleavage was 0.139.
The value for C8G C9U was 0.0635; that for G17U U37G was 0.12.
The value for G17A G44C was 0.733; that for C25U G36A was 0.263; that for G7C U12C was 0.0838.
The value for A4C G41A was 0.0502.
Consider A33U G38U, for which the self-cleavage worked out at 0.815.
Turning to C19U G28A, the self-cleavage worked out at 0.758.
The value for A2G C20A was 0.0649; that for A10U G36A was 0.804; that for U12G A33U was 0.868.
In the case of A10U G28U, the self-cleavage is 0.929.
With U12A G48C the figure was 1.22; with G24C G48C, 0.116; with G47A G48C, 0.942.
For A2U G44C, the self-cleavage is 0.439.
On to A2C A32U, for which the self-cleavage is 0.101.
Consider A22C C25U, for which the self-cleavage is 0.948.
With G42C C46A the figure was 0.289.
Take G36U G43U: the self-cleavage stood at 0.15.
On to G24C G47A, for which the self-cleavage is 0.0965.
The value for G29C G44A was 0.791; that for C9U C19G was 0.101; that for U6A A22C was 0.936.
The value for C20U C26A was 0.138; that for A2C A23G was 0.06; that for A1G U18A was 0.509.
Regarding A23C G48C, the self-cleavage amounted to 0.211.
Consider A1G A2G, for which the self-cleavage was 1.19.
C9A G16C: the self-cleavage came to 0.087.
For A32G A40C, the self-cleavage was determined as 0.226.
The value for A32G A40U was 0.117.
